The values below come from the supplement of paper PMC9112550, “Optimization of the antimicrobial peptide Bac7 by deep mutational scanning” (BMC Biology, 2022).

This series relates to Escherichia coli TOP10. The experiment in a line: shrunken log2 fold change of peptide-encoding DNA abundance (4.5 h post-induction vs induction); higher = less antimicrobial activity (less host growth inhibition). The conditions noted are these: time post-induction: 4.5 h; library: site-saturation at positions 5, 18, 19, 20.
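Further: peptides expressed intracellularly from a pBAD plasmid library in pooled LB shake-flask culture, induced with 0.3% L-arabinose, DNA abundance read by NGS, three biological replicates, DESeq2 with apeglm shrinkage.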

Take RRIRKRPPRLPRPRPRPDNTPRP: the “shrunken log2 fold change” value was -0.0368.

RRIRIRPPRLPRPRPRPCHPPRP: the “shrunken log2 fold change” value is -0.447. Turning to RRIRGRPPRLPRPRPRPLHYPRP, the “shrunken log2 fold change” value was -0.0826.

For RRIRARPPRLPRPRPRPILQPRP, the “shrunken log2 fold change” value is 0.0186.

RRIRFRPPRLPRPRPRPYSSPRP: the “shrunken log2 fold change” value is -0.571. RRIRIRPPRLPRPRPRPFVIPRP: the “shrunken log2 fold change” value was 0.0556.

RRIRFRPPRLPRPRPRPCSSPRP: the “shrunken log2 fold change” value was found to be 0.0898. Then RRIRCRPPRLPRPRPRPACPPRP, with -0.136; and RRIRCRPPRLPRPRPRPKRNPRP, with 0.34; and RRIRLRPPRLPRPRPRPVQQPRP, with 0.053. Take RRIRYRPPRLPRPRPRPIHDPRP: the “shrunken log2 fold change” value is -1.22.

Consider RRIRWRPPRLPRPRPRPKHKPRP, for which the “shrunken log2 fold change” value amounted to 0.0536.

For RRIRIRPPRLPRPRPRPDGGPRP, the “shrunken log2 fold change” value was -0.446. RRIRTRPPRLPRPRPRPKRVPRP: the “shrunken log2 fold change” value is -0.0636. With RRIRPRPPRLPRPRPRPTACPRP, the “shrunken log2 fold change” value is 0.338. As for RRIRARPPRLPRPRPRPVWQPRP, the “shrunken log2 fold change” value is 0.129.

Take RRIRHRPPRLPRPRPRPTPFPRP: the “shrunken log2 fold change” value came to 0.177. Regarding RRIRWRPPRLPRPRPRPQAAPRP, the “shrunken log2 fold change” value worked out at 0.702. For the sequence RRIRGRPPRLPRPRPRPGMTPRP, the “shrunken log2 fold change” value came out at 0.792.

RRIRHRPPRLPRPRPRPRDNPRP: the “shrunken log2 fold change” value is 0.0766. Regarding RRIRYRPPRLPRPRPRPKWPPRP, the “shrunken log2 fold change” value was -0.0557.

As to RRIRSRPPRLPRPRPRPYCVPRP, the “shrunken log2 fold change” value was -0.912.

Take RRIRNRPPRLPRPRPRPRTYPRP: the “shrunken log2 fold change” value was -0.571. Turning to RRIRTRPPRLPRPRPRPRIRPRP, the “shrunken log2 fold change” value is 0.0303.

For RRIRDRPPRLPRPRPRPEQTPRP, the “shrunken log2 fold change” value is 0.0162. On to RRIRRRPPRLPRPRPRPQKRPRP, for which the “shrunken log2 fold change” value amounted to 0.13.

Consider RRIRHRPPRLPRPRPRPRMVPRP, for which the “shrunken log2 fold change” value is -0.0236. Under RRIRWRPPRLPRPRPRPTAEPRP stands 1.76; under RRIRCRPPRLPRPRPRPMPIPRP, -0.197. With RRIRHRPPRLPRPRPRPNPHPRP, the “shrunken log2 fold change” value is -0.35. Turning to RRIRGRPPRLPRPRPRPRWEPRP, the “shrunken log2 fold change” value was 0.946. As to RRIRGRPPRLPRPRPRPCGDPRP, the “shrunken log2 fold change” value was found to be 0.581. For the sequence RRIRTRPPRLPRPRPRPDYTPRP, the “shrunken log2 fold change” value was -0.606. Consider RRIRGRPPRLPRPRPRPHCFPRP, for which the “shrunken log2 fold change” value amounted to 0.233. As to RRIRVRPPRLPRPRPRPPLYPRP, the “shrunken log2 fold change” value was -0.00849. Take RRIRERPPRLPRPRPRPLEEPRP: the “shrunken log2 fold change” value was determined as 0.239.

Take RRIRDRPPRLPRPRPRPIRRPRP: the “shrunken log2 fold change” value was -0.00194.

Regarding RRIRVRPPRLPRPRPRPYDSPRP, the “shrunken log2 fold change” value is -0.126. For RRIRYRPPRLPRPRPRPCSHPRP, the “shrunken log2 fold change” value is -0.566.

As for RRIRCRPPRLPRPRPRPTWNPRP, the “shrunken log2 fold change” value came to 0.128.

Consider RRIRWRPPRLPRPRPRPEMMPRP, for which the “shrunken log2 fold change” value came out at 0.399.

As for RRIRWRPPRLPRPRPRPKNPPRP, the “shrunken log2 fold change” value came to 0.152.

As for RRIRNRPPRLPRPRPRPQNGPRP, the “shrunken log2 fold change” value was determined as 0.00902. With RRIRVRPPRLPRPRPRPQMKPRP, the “shrunken log2 fold change” value was -0.0794.

As for RRIRRRPPRLPRPRPRPLELPRP, the “shrunken log2 fold change” value is 0.199. RRIRPRPPRLPRPRPRPATDPRP: the “shrunken log2 fold change” value worked out at 0.00951. As for RRIRVRPPRLPRPRPRPHVHPRP, the “shrunken log2 fold change” value is -0.45. With RRIRLRPPRLPRPRPRPNLSPRP, the “shrunken log2 fold change” value was -0.548. For the sequence RRIRYRPPRLPRPRPRPDKPPRP, the “shrunken log2 fold change” value is -0.0375. For RRIRCRPPRLPRPRPRPGPYPRP, the “shrunken log2 fold change” value was -0.385. As for RRIRGRPPRLPRPRPRPVEVPRP, the “shrunken log2 fold change” value was 1.03. Then RRIRCRPPRLPRPRPRPLRAPRP, with 1.02; and RRIRMRPPRLPRPRPRPCILPRP, with 0.053. Then RRIRQRPPRLPRPRPRPFPAPRP, with -0.0923; and RRIRDRPPRLPRPRPRPGACPRP, with 0.23; and RRIRTRPPRLPRPRPRPPACPRP, with 0.313.

RRIRRRPPRLPRPRPRPQKCPRP: the “shrunken log2 fold change” value is -0.288. Then RRIRLRPPRLPRPRPRPIPYPRP, with -0.401; and RRIRARPPRLPRPRPRPLTIPRP, with 0.0223; and RRIRGRPPRLPRPRPRPAVFPRP, with 0.878. RRIRTRPPRLPRPRPRPEHAPRP: the “shrunken log2 fold change” value is -0.108. With RRIRDRPPRLPRPRPRPTYYPRP, the “shrunken log2 fold change” value was -0.204.

Take RRIRKRPPRLPRPRPRPEGCPRP: the “shrunken log2 fold change” value worked out at 0.959.

For the sequence RRIRFRPPRLPRPRPRPAGFPRP, the “shrunken log2 fold change” value turned out to be 0.0553. RRIRCRPPRLPRPRPRPQQAPRP: the “shrunken log2 fold change” value was determined as 0.239. On to RRIRCRPPRLPRPRPRPNVVPRP, for which the “shrunken log2 fold change” value came to 0.0385.

For the sequence RRIRARPPRLPRPRPRPCKSPRP, the “shrunken log2 fold change” value is 0.0355. With RRIRKRPPRLPRPRPRPKQPPRP, the “shrunken log2 fold change” value was -0.0354.

As to RRIRVRPPRLPRPRPRPYLPPRP, the “shrunken log2 fold change” value was -0.453. Under RRIRYRPPRLPRPRPRPRQIPRP stands -0.137; under RRIRIRPPRLPRPRPRPTNWPRP, -0.128. Turning to RRIRQRPPRLPRPRPRPSTEPRP, the “shrunken log2 fold change” value was -0.0926. Under RRIRDRPPRLPRPRPRPACKPRP stands 0.00774; under RRIRLRPPRLPRPRPRPIYKPRP, -0.489. RRIRWRPPRLPRPRPRPKKIPRP: the “shrunken log2 fold change” value was 0.0449.

For RRIRHRPPRLPRPRPRPWNLPRP, the “shrunken log2 fold change” value was -0.278.

For the sequence RRIRDRPPRLPRPRPRPGKYPRP, the “shrunken log2 fold change” value is -0.124.

Turning to RRIRYRPPRLPRPRPRPCEYPRP, the “shrunken log2 fold change” value was -0.138.

As for RRIRNRPPRLPRPRPRPLKRPRP, the “shrunken log2 fold change” value is -0.0368.

Turning to RRIRWRPPRLPRPRPRPGLAPRP, the “shrunken log2 fold change” value was found to be 0.505.

Consider RRIRQRPPRLPRPRPRPGHKPRP, for which the “shrunken log2 fold change” value was -0.00306. For the sequence RRIRRRPPRLPRPRPRPSFLPRP, the “shrunken log2 fold change” value is -0.268. As for RRIRARPPRLPRPRPRPFCCPRP, the “shrunken log2 fold change” value was 0.206. Then RRIRRRPPRLPRPRPRPPWTPRP, with 0.443. On to RRIRMRPPRLPRPRPRPHYVPRP, for which the “shrunken log2 fold change” value was -0.0815. Then RRIRGRPPRLPRPRPRPRFSPRP, with 0.0932. RRIRTRPPRLPRPRPRPVTYPRP: the “shrunken log2 fold change” value was determined as 0.0141. Take RRIRGRPPRLPRPRPRPPPSPRP: the “shrunken log2 fold change” value was 1.22. For the sequence RRIRYRPPRLPRPRPRPSVPPRP, the “shrunken log2 fold change” value was -0.497. Under RRIRLRPPRLPRPRPRPWWHPRP stands 0.0812; under RRIRIRPPRLPRPRPRPDGDPRP, -0.176; under RRIRARPPRLPRPRPRPDMHPRP, -0.00915. For the sequence RRIRHRPPRLPRPRPRPQHIPRP, the “shrunken log2 fold change” value is -0.595. Then RRIRKRPPRLPRPRPRPGEDPRP, with 0.0621.

Turning to RRIRHRPPRLPRPRPRPLCGPRP, the “shrunken log2 fold change” value is -0.302.

As for RRIRKRPPRLPRPRPRPAKQPRP, the “shrunken log2 fold change” value stood at 0.0123.

For RRIRDRPPRLPRPRPRPVIIPRP, the “shrunken log2 fold change” value is -0.316. With RRIRQRPPRLPRPRPRPANLPRP, the “shrunken log2 fold change” value was found to be 0.164. Then RRIRPRPPRLPRPRPRPWVKPRP, with -0.0754; and RRIRERPPRLPRPRPRPDWTPRP, with 0.0763; and RRIRIRPPRLPRPRPRPKLYPRP, with -0.33. Regarding RRIRPRPPRLPRPRPRPWFYPRP, the “shrunken log2 fold change” value was -0.543. For RRIRPRPPRLPRPRPRPEFFPRP, the “shrunken log2 fold change” value is -0.00122. For RRIRSRPPRLPRPRPRPWKQPRP, the “shrunken log2 fold change” value was -0.00145. With RRIRCRPPRLPRPRPRPGRTPRP, the “shrunken log2 fold change” value is -0.106. As to RRIRQRPPRLPRPRPRPPSAPRP, the “shrunken log2 fold change” value was 0.5.

For RRIRNRPPRLPRPRPRPPMWPRP, the “shrunken log2 fold change” value was -0.115. Consider RRIRIRPPRLPRPRPRPLILPRP, for which the “shrunken log2 fold change” value is -0.895. For RRIRFRPPRLPRPRPRPWNIPRP, the “shrunken log2 fold change” value was -0.0965. Then RRIRLRPPRLPRPRPRPGYRPRP, with -0.16. As for RRIRPRPPRLPRPRPRPHKCPRP, the “shrunken log2 fold change” value was -0.19.

On to RRIRTRPPRLPRPRPRPFLTPRP, for which the “shrunken log2 fold change” value was 0.153. For the sequence RRIRHRPPRLPRPRPRPGVRPRP, the “shrunken log2 fold change” value is 0.175. With RRIRPRPPRLPRPRPRPMEYPRP, the “shrunken log2 fold change” value is -0.00176. For the sequence RRIRIRPPRLPRPRPRPYGHPRP, the “shrunken log2 fold change” value worked out at 0.0184. In the case of RRIRERPPRLPRPRPRPQGAPRP, the “shrunken log2 fold change” value came out at 0.169. For the sequence RRIRPRPPRLPRPRPRPPAEPRP, the “shrunken log2 fold change” value amounted to 0.632. Turning to RRIRYRPPRLPRPRPRPPCCPRP, the “shrunken log2 fold change” value is -0.149. Take RRIRSRPPRLPRPRPRPKWMPRP: the “shrunken log2 fold change” value stood at 0.269. For the sequence RRIRARPPRLPRPRPRPTWIPRP, the “shrunken log2 fold change” value came to 0.291. In the case of RRIRERPPRLPRPRPRPCETPRP, the “shrunken log2 fold change” value is -0.336.

On to RRIRPRPPRLPRPRPRPFLPPRP, for which the “shrunken log2 fold change” value is -0.0925. Turning to RRIRERPPRLPRPRPRPHTMPRP, the “shrunken log2 fold change” value was -0.0656.

For RRIRYRPPRLPRPRPRPIIWPRP, the “shrunken log2 fold change” value was -0.152. With RRIRYRPPRLPRPRPRPANPPRP, the “shrunken log2 fold change” value is -0.422.
